# Assay results taken from patent US20240093191A1, “COMPOSITIONS AND METHODS FOR TREATING DISEASE ASSOCIATED WITH DUX4 OVEREXPRESSION” (RESEARCH INSTITUTE AT NATIONWIDE CHILDREN'S HOSPITAL, priority 2021, published 2024).
# Key:
# Format in all cases: cell-based, human
# DUX4 protein = experiment: Western blot of V5-tagged DUX4 protein in co-transfected HEK293 cells; conditions: CMV.DUX4-FL/CMV.eGFP, HEK293, molar ratio 1 to 3, eGFP normalizer, relative to U6-milacZ, N = 3-8
# pri-mir-675 = experiment: TaqMan QRT-PCR of pri-mir-675 from transfected constructs in HEK293 cells; conditions: 24 h post-transfection
# Text: (§1) RNA Extraction. RNA from HEK293 cells was extracted for Northern blot assay and QPCR. The miRVANA miRNA isolation kit (ThermoFisher Scientific) was used according to manufacturer's directions to extract total RNA encompassing small RNAs, such as miRNAs. To extract RNA from C57BL/6 skeletal muscles, cryopreserved muscles were crushed under suboptimal temperatures using liquid nitrogen and using mortar and pestle. Crushed muscles were then lysed using […] of miRVANA miRNA isolation kit lysis buffer, a TissueLyser and 1.0 mm zirconia beads (Biospec). Muscle was homogenized at 30 Hz for 30 sec with 10 sec rest. This was repeated 3 times.
# (§2) TaqMan Gene Expression Assay. QRT-PCR was carried out to quantify the expression of pri-mir-675, mir-675-5p and mi405 using TaqMan probes (ThermoFisher Scientific). Experiments were started by eliminating genomic DNA from the RNA preparations, and then cDNA was generated using the High-Capacity cDNA Reverse Transcription Kit (Applied Biosystems) following manufacturer's instructions. Within the same cDNA reaction, 1×RT random hexamer primers were used to generate the cDNA for RPL13A, used as a reference gene, and for pri-mir-675. To generate the cDNA for mir-675, the RT mir-675 reverse primer provided by ThermoFisher Scientific was used. For mi405, the mi405 qPCR protocol was done as it was previously described [Wallace et al., Mol. Ther. Methods Clin. Dev. 8: 121-30 (2018)]. To quantify mir-675 and mi405 levels, RNA was extracted using the total RNA protocol for the mirVana miRNA Isolation Kit (Ambion) from HEK293 cells. cDNA was generated using the High-Capacity cDNA Reverse Transcription Kit (Applied Biosystems) using a mix of random hexamer primers and specific reverse primer for pri-mir-675 and mir-675-5p. For mi405, 200 nM of the stem-loop forming primer (5′-[…]-3′) (SEQ ID NO: 144) was also used for the RT step. A custom TaqMan assay (Applied Biosystems) including 1.5 μM of Forward primer (5′-[…]-3′) (SEQ ID NO: 145), 0.7 μM of Reverse primer (5′-GTGCAGGGTCCGAGGT-3′) (SEQ ID NO: 146), and 0.2 μM of mi405 probe (5′-6FAM-ATACGACGTCCAGGAT-3′) (SEQ ID NO: 147) was then run using the CFX Connect Real Time system apparatus (Bio-Rad). RPL13A (Mm02526700_g1; Applied Biosystems) served as the reference gene. The TaqMan gene expression assay consisted of using the TaqMan Gene Expression Master mix and TaqMan probes purchased from ThermoFisher Scientific. 1× of probe was mixed with 1× of the TaqMan Gene Expression Master mix (ThermoFisher Scientific), and with 20 ng of cDNA. The mir-675- and mi405-specific primers and probes were designed to quantify only the mir-675-5p and mi405 mature sequence (see TaqMan Gene Expression Master mix protocol).
# mir-675-5p [1] = experiment: ddPCR of all mature mir-675-5p sequences (TaqMan Advanced miRNA cDNA synthesis) in HEK293 cells
# Experimental: Digital Droplet PCR (ddPCR). For mir-675 and mi405 constructs, RNA extraction was carried out as described for QPCR above. For cDNA synthesis, the TaqMan advanced cDNA synthesis kit (Thermo Fisher) was used and cDNA was prepared by following manufacturer's instructions. ddPCR was carried out using 1× ddPCR Supermix for probes (No dUTP) (Bio-Rad), 1× commercially available mir-675 advanced TaqMan probe, or a custom made mi405 advanced TaqMan probe (ThermoFisher) and 50 ng of cDNA. For DUX4 cDNA synthesis, the High-Capacity cDNA Reverse Transcription Kit (Applied Biosystems) was used according to manufacturer's instructions. Within the same cDNA reaction, 1×RT random hexamer primers and 25 pmoles of the Oligo(dT) primer were used to generate cDNA for DUX4 and DUX4-responsive biomarkers and for mouse Rpl13A, used as a reference gene. To quantify DUX4, the ddPCR reaction mixture (20 μL) contained 1× ddPCR Evagreen Supermix (Bio-Rad), 1 μM of forward and reverse DUX4 primers (Sharma et al., J Genet Syndr Gene Ther 2016 August; 7(4):303. doi: 10.4172/2157-7412.1000303. Epub 2016 Aug. 8), and 50 ng of cDNA. To quantify Rpl13A and DUX4-responsive biomarkers (Trim36 and Wfdc3), the 1× ddPCR Supermix for probes (No dUTP) and TaqMan specific probes were used for each of the genes. Droplets were generated using the Automatic Droplet generator QX200 AutoDG (Bio-Rad), the reactions were amplified in a C1000 Touch™ Thermal Cycler with 96-Deep Well Reaction Module (Bio-Rad). Cycling conditions were set up following the QX200 ddPCR Evagreen Supermix protocol. All assays are compatible with an annealing temperature of 58° C. Droplets were then read using the QX200 droplet reader (Bio-Rad). Finally, data were analyzed using the QuantaSoft analysis software (Bio-Rad). For quantification, each reaction of 20 μL was estimated to give at least 10,000 acceptable droplets.
# In order to quantify the level of all these mature sequences, the TaqMan advanced miRNA cDNA synthesis method that uses universal reverse transcription (RT) chemistry to synthesize cDNA templates that can be quantified using the TaqMan Advanced miRNA probes was used. In this method, most of the processed mature miRNA sequences were quantified.
# mir-675-5p [2] = experiment: Small-transcript northern blot of mir-675 processing in HEK293 cells; conditions: HEK293; anti-mir-675-5p biotinylated probe
# Text: Small-Transcript Northern Blots. […] (SEQ ID NO: 148)).
# mir-675-5p [3] = experiment: TaqMan QRT-PCR of mature mir-675-5p from transfected constructs in HEK293 cells; conditions: HEK293, 24 h post-transfection; for mir-675-5p levels compared to U6.mir-675: 23 mer mature mir-675-5p
# Text: as §1, §2
Molecule,Average inhibition efficiency (%) of DUX4 protein levels (DUX4 protein),pri-mir-675 levels compared to U6.mir-675 (pri-mir-675),fold change of all mature mir-675-5p sequences compared to U6.mir-675 (mir-675-5p [1]),mature mir-675-5p bands on northern blot (mir-675-5p [2]),Average inhibition efficiency (%) of DUX4 protein levels (DUX4 protein; listed as U6-mir-675H),mir-675-5p levels compared to U6.mir-675 (mir-675-5p [3]),ratio of mir-675-5p/pri-mir-675 compared to U6.mir-675 (mir-675-5p [3])
U6.mir-675NF: U6 mir-675 construct with no flanking sequences (nucleic acid) DNA: TCTAGAGATCCGACGCCGCCATCTCTAGGCCCGCGCCGGCCCCCTCGCACAGACTTGTGGGAGAAGCTCGGCTACTCCCCTGCCCCGGTTAATTTGCATATAATATTTCCTAGTAACTATAGAGGCTTAATGTGCGATAAAAGACAGATAATCTGTTCTTTTTAATACTAGCTACATTTTACATGATAGGCTTGGATTTCTATAAGAGATACAAATACTAAATTATTATTTTAAAAAACAGCACAAAAGGAAACTCACCCTAACTGTAAAGTAATTGTGTGTTTTGAGACTATAAATATCCCTTGGAGAAAAGCCTTGTTTGCCCCAGGGTCTGGTGCGGAGAGGGCCCACAGTGGACTTGGTGACGCTGTATGCCCTCACCGCTCAGCCCCTGGGGTTTTTT,69 ± 6 (N = 5) %,213±28%,176±60%,detectable mir-675 mature sequences,–,–,–
U6.mir-675H: mir-675 construct with modified flanking sequences and UA dinucleotide (nucleic acid) DNA: TCTAGAGATCCGACGCCGCCATCTCTAGGCCCGCGCCGGCCCCCTCGCACAGACTTGTGGGAGAAGCTCGGCTACTCCCCTGCCCCGGTTAATTTGCATATAATATTTCCTAGTAACTATAGAGGCTTAATGTGCGATAAAAGACAGATAATCTGTTCTTTTTAATACTAGCTACATTTTACATGATAGGCTTGGATTTCTATAAGAGATACAAATACTAAATTATTATTTTAAAAAACAGCACAAAAGGAAACTCACCCTAACTGTAAAGTAATTGTGTGTTTTGAGACTATAAATATCCCTTGGAGAAAAGCCTTGTTTGACCGTTTAAACCCCAGGGTCTGGTGCGGAGAGGGCCCACAGTGGACTTGGTGACGCTGTATGCCCTCACCGCTCAGCCCCTGGGGCGCACGCCAGTTTTTT,89±6%,256±37%,201±38%,–,89 ± 6 (N = 3) %,774±93%,303±57%
U6.mir-675-2.3.1: mir-675 construct with modified 5' and 3' flanking sequences (nucleic acid) DNA: TCTAGAGATCCGACGCCGCCATCTCTAGGCCCGCGCCGGCCCCCTCGCACAGACTTGTGGGAGAAGCTCGGCTACTCCCCTGCCCCGGTTAATTTGCATATAATATTTCCTAGTAACTATAGAGGCTTAATGTGCGATAAAAGACAGATAATCTGTTCTTTTTAATACTAGCTACATTTTACATGATAGGCTTGGATTTCTATAAGAGATACAAATACTAAATTATTATTTTAAAAAACAGCACAAAAGGAAACTCACCCTAACTGTAAAGTAATTGTGTGTTTTGAGACTATAAATATCCCTTGGAGAAAAGCCTTGTTTGAATCACACTGCCCCAGGGTCTGGTGCGGAGAGGGCCCACAGTGGACTTGGTGACGCTGTATGCCCTCACCGCTCAGCCCCTGGGGATAACTCCTAATCACACTTTTTT,58 ± 8 (N = 3) %,274±49%,187±40%,–,–,241±29%,–
